Laboratory results published in patent US20190248877A1 (Hoffmann-La Roche, published 2019).

Experiments:
Assay in all cases: SPR Biacore T200, biotinylated TnC on SA chip, Fab as analyte, 1:1 fit
[1] = target: T1, cynoTNC (recombinant cynomolgus TnC antigen) (cynomolgus, biotin on the C-terminal avi-tag where used biotinylated (Example 5))
T1 construct: GST may have been cleaved off by thrombin; The text says this construct lacks the C domain
T1 chain: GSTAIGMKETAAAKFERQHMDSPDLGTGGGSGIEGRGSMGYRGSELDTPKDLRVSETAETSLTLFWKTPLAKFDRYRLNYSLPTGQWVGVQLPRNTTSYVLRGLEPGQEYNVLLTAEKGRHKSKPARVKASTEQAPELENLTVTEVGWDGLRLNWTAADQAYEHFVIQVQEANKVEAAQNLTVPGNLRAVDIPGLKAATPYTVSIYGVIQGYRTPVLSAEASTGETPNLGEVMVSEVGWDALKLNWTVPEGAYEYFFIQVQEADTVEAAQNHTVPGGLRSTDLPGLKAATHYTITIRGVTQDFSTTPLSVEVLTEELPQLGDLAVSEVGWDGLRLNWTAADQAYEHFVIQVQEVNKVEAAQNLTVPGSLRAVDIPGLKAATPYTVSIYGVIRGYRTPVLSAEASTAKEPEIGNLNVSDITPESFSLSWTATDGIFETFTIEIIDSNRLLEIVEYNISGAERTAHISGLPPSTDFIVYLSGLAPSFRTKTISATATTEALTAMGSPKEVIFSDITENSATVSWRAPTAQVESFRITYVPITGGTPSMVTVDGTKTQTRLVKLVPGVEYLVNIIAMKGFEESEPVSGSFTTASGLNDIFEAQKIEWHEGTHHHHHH
Method: (§1) Binding of the anti-TnC IgGs 18D4, 11C7 and the Fab fragment of anti-TnC 18D4 to human, murine and cynomolgus TnC (antigens according to Table 4) was assessed by surface plasmon resonance (SPR). All SPR experiments were performed on a Biacore T200 at 25° C. with HBS-EP as running buffer (0.01 M HEPES pH 7.4, 0.15 M NaCl, 3 mM EDTA, 0.005% Surfactant P20, Biacore, Freiburg/Germany).
(§2) A 20 μg/ml stock solution of biotinylated human, murine or cynomolgus TnC was injected on a SA chip, with the aim to immobilize up to 100 RU using the immobilization wizard function.
(§3) An additional dissociation step of 1800s was performed for the highest concentration of IgG. After each step the surface was regenerated following two sequential injections of 10 mM glycine pH2.1 for 60 s. Bulk refractive index differences were corrected for by subtracting the response obtained in a reference flow cell without TNC. Affinity and avidity were calculated using the Langmuir 1:1 kinetic model. However, as the KD for the 1:1 fitting of bivalent interactions is an apparent value only, it should only be used for comparisons.

[2] = target: T2, huTNC (recombinant human TnC antigen) (human, UniProt P24821 984-1798, biotin on the C-terminal avi-tag where used biotinylated (Examples 5 and 10))
T2 sequence: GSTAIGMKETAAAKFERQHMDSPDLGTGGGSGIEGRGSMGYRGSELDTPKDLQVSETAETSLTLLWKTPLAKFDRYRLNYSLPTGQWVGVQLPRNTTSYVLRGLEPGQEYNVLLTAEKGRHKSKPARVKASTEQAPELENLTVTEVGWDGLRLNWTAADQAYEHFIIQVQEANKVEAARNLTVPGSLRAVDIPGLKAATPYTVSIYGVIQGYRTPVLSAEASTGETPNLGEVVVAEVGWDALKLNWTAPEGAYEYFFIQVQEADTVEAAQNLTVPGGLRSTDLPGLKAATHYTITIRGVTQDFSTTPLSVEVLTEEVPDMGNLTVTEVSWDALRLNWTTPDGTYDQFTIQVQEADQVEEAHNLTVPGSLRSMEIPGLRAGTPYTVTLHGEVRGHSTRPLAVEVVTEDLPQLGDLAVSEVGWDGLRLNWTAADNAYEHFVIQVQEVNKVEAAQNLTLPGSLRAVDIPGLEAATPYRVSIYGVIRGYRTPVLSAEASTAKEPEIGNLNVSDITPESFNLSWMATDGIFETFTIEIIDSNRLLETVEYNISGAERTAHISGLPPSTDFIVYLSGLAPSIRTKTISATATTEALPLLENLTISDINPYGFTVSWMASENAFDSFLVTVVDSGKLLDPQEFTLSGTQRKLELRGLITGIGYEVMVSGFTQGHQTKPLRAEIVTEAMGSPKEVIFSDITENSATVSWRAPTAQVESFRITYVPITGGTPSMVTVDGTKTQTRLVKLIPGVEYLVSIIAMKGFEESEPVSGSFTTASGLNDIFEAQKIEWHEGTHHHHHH
Method: as §1, §2, §3

[3] = target: T3, muTNC (recombinant murine TnC antigen) (mouse, biotin on the C-terminal avi-tag where used biotinylated (Example 5))
T3 construct: GST may have been cleaved off by thrombin; The text says this construct lacks the C domain; also called mouse TnC
T3 chain: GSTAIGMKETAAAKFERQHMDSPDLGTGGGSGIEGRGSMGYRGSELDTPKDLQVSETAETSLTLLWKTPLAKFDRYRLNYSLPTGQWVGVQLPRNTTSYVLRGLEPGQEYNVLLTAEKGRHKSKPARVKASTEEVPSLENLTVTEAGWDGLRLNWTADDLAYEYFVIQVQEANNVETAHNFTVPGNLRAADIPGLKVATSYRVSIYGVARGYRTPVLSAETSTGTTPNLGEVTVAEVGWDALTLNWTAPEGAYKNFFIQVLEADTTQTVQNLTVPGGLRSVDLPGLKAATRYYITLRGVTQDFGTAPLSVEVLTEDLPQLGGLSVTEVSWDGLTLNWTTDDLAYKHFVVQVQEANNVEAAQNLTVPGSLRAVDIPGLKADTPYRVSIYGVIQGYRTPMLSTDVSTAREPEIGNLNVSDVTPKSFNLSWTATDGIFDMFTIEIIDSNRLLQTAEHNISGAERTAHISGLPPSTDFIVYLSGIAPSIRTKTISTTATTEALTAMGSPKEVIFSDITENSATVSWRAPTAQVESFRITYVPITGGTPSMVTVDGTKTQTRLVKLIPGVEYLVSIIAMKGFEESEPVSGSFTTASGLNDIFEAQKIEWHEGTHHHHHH
Method: as §1, §2, §3

B1: anti-TnC clone 18D4 Fab fragment (Fab, V domains shown)
VH: QVQLVQSGAEVKKPGSSVKVSCKASGGTFSSYAISWVRQAPGQGLEWMGGIIPIFGTANYAQKFQGRVTITADKSTSTAYMELSSLRSEDTAVYYCAKGNFYGGLDYWGQGTTVTVSS
VL: DIQMTQSPSTLSASVGDRVTITCRASQSISSWLAWYQQKPGKAPKLLIYDASSLESGVPSRFSGSGSGTEFTLTISSLQPDDFATYYCQQNKKFPSGTFGQGTKVEIK
B1 gave a Kd [1] of 6.69 nM, a Kd [2] of 1.44 nM and a Kd [3] of 6.5 nM.
